From publication PMC6981144

Experiments:
[1] = target: human SNAP_GLP1R (SNAP-tagged glucagon-like peptide-1 receptor) (human) (UniProt P43220); assay: fluorescent ligand labelling of cells, confocal microscopy; transiently transfected YFP-AD293-SNAP_GLP1R cells; increasing concentrations of compound applied for 60 min; control cells without GLP1R
[2] = target: human SNAP_GLP1R (SNAP-tagged glucagon-like peptide-1 receptor) (human) (UniProt P43220)

human SNAP_GLP1R (SNAP-tagged glucagon-like peptide-1 receptor) (human), sequence (P43220 24-463): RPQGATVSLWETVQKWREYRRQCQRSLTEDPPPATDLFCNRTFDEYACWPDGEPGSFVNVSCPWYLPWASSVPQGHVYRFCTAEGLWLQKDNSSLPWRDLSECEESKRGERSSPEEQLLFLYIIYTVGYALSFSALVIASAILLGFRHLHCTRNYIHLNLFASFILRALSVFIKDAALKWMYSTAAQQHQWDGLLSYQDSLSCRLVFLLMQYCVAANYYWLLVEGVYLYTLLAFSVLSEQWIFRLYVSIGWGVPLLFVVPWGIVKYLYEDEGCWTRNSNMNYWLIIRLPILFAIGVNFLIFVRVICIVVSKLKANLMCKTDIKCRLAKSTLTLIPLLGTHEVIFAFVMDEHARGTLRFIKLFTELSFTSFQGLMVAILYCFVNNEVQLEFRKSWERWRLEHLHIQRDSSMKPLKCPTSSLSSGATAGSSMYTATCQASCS

Row | Substance | concentration of maximal labelling [1] [nM] | cAMP production (EC50) in HEK293-SNAP GLP1R cells, 30 min stimulation, with the positive allosteric modulator BETP (25 µM) [2] [nM]
1 | LUXendin555 (peptide) | 600 | 
2 | LUXendin645 (peptide) | 250 to 500 | 192
